Source: patent publication US12643935B2, “PD-L1 binding peptides” (UNIVERSITY OF SOUTHERN CALIFORNIA, priority 2020, dated 2026)
Entries after “also recorded” stand apart in the source; their conditions may differ.

What was measured:
hPD-L1 [1] = biological target: T1, hPD-L1 (Homo sapiens, UniProt Q9NZQ7); assay: Radioactive competition assay: [35S]-SPAM binding to immobilized hPD-L1 with competitor; conditions: 5 μM competitor
T1 construct: designed from A18 to T239 with a methionine added to the N-terminus; hexahistidine tag (C); made in house
Description: For radioactive competition assays, hPD-L1-immobilized streptavidin agarose beads were preincubated with the desired competitor for one hour at 4° C. followed by addition of the radiolabeled peptide for 1 h. The ratio of the counts remaining on the beads to the total counts added to the binding reaction was calculated to determine the percent bound.

hPD-L1 [2] = biological target: T1, hPD-L1; assay: Surface plasmon resonance of mPD-1 on immobilized hPD-L1; conditions: SPR, 25° C., one-site saturation binding model; read-out: dissociation constant (KD) hPD-L1/mPD-1
Description: In order to confirm that the expressed hPD-L1 was correctly folded, binding to mPD-1 was measured by SPR. The dissociation constant (KD) between recombinant hPD-L1 and PD-1 was determined to be 3.2±0.3 μM using a one-site saturation binding model (FIG. 7).
SPR analysis was performed on a Biacore T-100 at the USC Nanobiophysics core. E. coli expressed biotinylated hPD-L1 was immobilized onto a sensor chip SA (GE Healthcare Life Sciences) and different concentrations (from 1.5×10^−7 to 2.9×10^−5 M) of mPD-1 was flowed over the chip at a rate of 50 μL/min for 60 seconds in a buffer consisting of 50 mM HEPES-KOH pH 7.5, 150 mM NaCl, 0.05% (v/v) Tween-20 and 1 mg/mL BSA at 25° C. The response values were fit to a one-site saturation binding model in GraphPad Prism to obtain an equilibrium binding constant.

B1: mPD-1: murine variant of PD-1, recombinant extracellular domain with HA tag and His tag (protein)
chain: MALEVPNGPWRSLTFYPAWLTVSEGANATFTCSLSNWSEDLMLNWNRLSPSNQTEKQAAFSNGLSQPVQDARFQIIQLPNRHDFHMNILDTRRNDSGIYLCGAISLHPKAKIEESPGAELVVTERILETSTRYPSGGYPYDVPDYALEHHHHHH
modifications: HA tag and His tag
notes: murine variant of PD-1, recombinant extracellular domain with HA tag and His tag
- effect on [35S]-SPAM binding to immobilized hPD-L1 (hPD-L1 [1]): significantly inhibited; also recorded: disrupted
- Kd (hPD-L1 [2]): ~3000 nM
